Measured values: article PMC6733452

B1: unnamed (parent)
chain 1: MFGLGHNSKEISMSHIGTKFILAEKFTFDPLSNTLIDKEDSEEIIRLGSNESRILWLLAQRPNEVISRNDLHDFVWREQGFEVDDSSLTQAISTLRKMLKDSTKSPQYVKTVPKRGYQLIARVETVEEEMARESEAAHDISQPESVNEYAESSSVPSSATVVNTPQPANVVTNKSAPNLGNRLLILIAVLLPLAVLLLTNPSQTSFKPLTVVDGVAVNMPNNHPDLSNWLPSIELCVKKYNEKHTGGLKPIEVIATGGQNNQLTLNYIHSPEVSGENITLRIVANPNDAIKVCE
chain 2: MGYVRVIYQFPDNLWWNECTNQVYYAQDPMKPERLIGTPSIIQTKLLKILCEYHPAPCPNDQIIKALWPHGFISSESLTQAIKRTRDFLNDEHKTLIENVKLQGYRINIIQVIVSENVVDEADCSQKKSVKERIKIEWGKINVVPYLVFSALYVALLPVIWWSYGQWYQHELAGITHDLRDLARLPGITIQKLSEQKLTFAIDQHQCSVNYEQKTLECTKN

Variants of: B1
Conditions: with partner chain of the complex shown; parent: 100; read off a plot

Q: How did the percent of parent (% capture relative to wild-type ToxR) turn out when chain 1 S102A T103A Q107A V112A was run?
A: 63

Q: For chain 1 I120A, which percent of parent (% capture relative to wild-type ToxR) is on record?
A: 90

Q: chain 1 Q107A was tested. Which percent of parent (% capture relative to wild-type ToxR) did it give?
A: 92

Q: How did the percent of parent (% capture relative to wild-type ToxR) turn out when chain 1 S102A was run?
A: 84

Q: Which percent of parent (% capture relative to wild-type ToxR) does the source give for chain 1 K114A here?
A: 110
